From publication PMC5913134, “The IL-33-PIN1-IRAK-M axis is critical for type 2 immunity in IL-33-induced allergic airway inflammation” (Nature Communications, 2018)

Biological target: PIN1 (GST-PIN1, GFP-PIN1, 15N-PIN1-WW) (UniProt Q13526)
Assay: co-IP with anti-GFP, blot
Conditions: reference: wild type; sites S110

## IRAK-M (transfected constructs and synthetic peptides) (from UniProt Q9Y616) S110A
  binding against the reference: lost
